From patent publication EP1336618A1
Several values for one entry are separate records, joined by “and”; a condition that tells them apart may be missing. Equal entries are not always repeated.

Biological target: human C3b (human) (UniProt P01024)
Experiment: cell-based or functional assay

UniProt P01024, sequence (P01024 749-1663 limits assumed, chain 1 of 2): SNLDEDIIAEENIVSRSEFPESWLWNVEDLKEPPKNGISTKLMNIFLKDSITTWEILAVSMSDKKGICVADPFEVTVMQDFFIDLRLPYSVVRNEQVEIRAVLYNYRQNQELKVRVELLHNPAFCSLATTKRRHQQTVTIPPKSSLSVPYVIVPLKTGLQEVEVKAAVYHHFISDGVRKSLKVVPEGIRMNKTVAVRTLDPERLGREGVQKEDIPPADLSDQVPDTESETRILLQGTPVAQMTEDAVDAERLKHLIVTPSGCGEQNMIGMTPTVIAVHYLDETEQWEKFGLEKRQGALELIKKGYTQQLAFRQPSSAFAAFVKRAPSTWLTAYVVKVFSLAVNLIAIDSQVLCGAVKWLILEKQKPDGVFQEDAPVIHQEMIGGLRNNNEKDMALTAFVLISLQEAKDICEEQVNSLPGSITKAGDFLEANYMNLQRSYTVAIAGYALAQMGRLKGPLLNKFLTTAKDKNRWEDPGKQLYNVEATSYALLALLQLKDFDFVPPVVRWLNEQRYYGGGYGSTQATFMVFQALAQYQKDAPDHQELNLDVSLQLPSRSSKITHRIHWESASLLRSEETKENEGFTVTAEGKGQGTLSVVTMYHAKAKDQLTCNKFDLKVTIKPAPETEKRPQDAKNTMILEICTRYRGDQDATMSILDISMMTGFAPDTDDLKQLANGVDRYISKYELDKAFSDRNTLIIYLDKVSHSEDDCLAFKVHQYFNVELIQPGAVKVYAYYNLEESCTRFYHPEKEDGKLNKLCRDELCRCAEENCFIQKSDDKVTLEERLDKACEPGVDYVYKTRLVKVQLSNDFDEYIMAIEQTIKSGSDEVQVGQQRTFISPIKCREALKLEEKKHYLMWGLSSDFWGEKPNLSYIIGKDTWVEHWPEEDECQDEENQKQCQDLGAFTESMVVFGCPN
UniProt P01024, sequence (P01024 23-667 limits assumed, chain 2 of 2): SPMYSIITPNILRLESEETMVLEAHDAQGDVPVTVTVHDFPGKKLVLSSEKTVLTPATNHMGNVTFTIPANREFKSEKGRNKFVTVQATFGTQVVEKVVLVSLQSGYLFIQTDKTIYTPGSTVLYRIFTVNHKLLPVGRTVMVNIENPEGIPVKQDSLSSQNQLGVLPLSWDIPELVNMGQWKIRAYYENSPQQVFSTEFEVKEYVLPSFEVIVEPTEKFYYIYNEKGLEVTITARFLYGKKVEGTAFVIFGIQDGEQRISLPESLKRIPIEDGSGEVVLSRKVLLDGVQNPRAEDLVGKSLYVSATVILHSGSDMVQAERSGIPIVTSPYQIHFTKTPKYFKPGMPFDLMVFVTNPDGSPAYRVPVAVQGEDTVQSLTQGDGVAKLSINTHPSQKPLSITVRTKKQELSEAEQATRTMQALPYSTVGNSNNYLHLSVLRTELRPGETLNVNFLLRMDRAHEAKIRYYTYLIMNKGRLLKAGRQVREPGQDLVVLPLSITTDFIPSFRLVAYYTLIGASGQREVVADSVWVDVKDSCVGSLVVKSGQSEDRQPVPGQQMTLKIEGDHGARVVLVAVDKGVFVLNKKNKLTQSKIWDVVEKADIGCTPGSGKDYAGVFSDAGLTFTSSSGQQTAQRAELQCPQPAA

Substance | half-maximum cleavage activity of hC3b (cofactor dilution, start 0.7 µg in 5 µl) (fold dilution (1:x)) | difference in half-maximum activity in the cleavage of human C3b against human FHL-1 (dilution step)
human FHL-1 (factor H like protein 1), recombinant (from UniProt P08603 19-449) | 16 and 8 | 
recombinant fragment pFH SCR1-4 (porcine complement regulator factor H, short consensus repeats 1-4) | 8 and 16 | < 1
